Earlier results, collected in US9700485B2, “Delamination resistant pharmaceutical glass containers containing active pharmaceutical ingredients” (Corning Incorporated, priority 2013, dated 2017).
Like-named read-outs stand apart in the source and are kept apart here.

Tests used:
human IL-17 = human IL-17 (Homo sapiens, UniProt Q16552); conditions: as characterized in the description, cited from earlier work
HT-29 cells = conditions: cited from earlier work
[1] = 300 RPM, room temperature, 72 hours; cited from earlier work
[2] = cited from earlier work
[3] = lyophilized, 4° C., 40° C. and 50° C. up to 4 months; cited from earlier work
[4] = pre and post lyophilized, 0.1 mg/mL; cited from earlier work
[5] = cited from earlier work; for particulate counts =10 μm/mL / particulate counts =25 μm/mL / particulate counts =50 μm/mL: HIAC
hTNFSF13b = target: T1, hTNFSF13b (Homo sapiens, UniProt Q9Y275); conditions: as characterized in the description (e.g.); cited from earlier work
T1 construct: purchased Research Diagnostics, Inc., Flanders, N.J
T1 sequence (Q9Y275 134-285 limits assumed): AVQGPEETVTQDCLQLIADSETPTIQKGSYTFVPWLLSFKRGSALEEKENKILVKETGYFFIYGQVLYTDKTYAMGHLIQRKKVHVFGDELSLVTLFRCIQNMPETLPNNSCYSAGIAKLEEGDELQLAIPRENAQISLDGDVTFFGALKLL

[6] = After Lyophilization, reconstituted to 5 mg/mL
[7] = Before Lyophilization, diluted to 5 mg/mL

Sequence of human IL-17 (Q16552 24-155): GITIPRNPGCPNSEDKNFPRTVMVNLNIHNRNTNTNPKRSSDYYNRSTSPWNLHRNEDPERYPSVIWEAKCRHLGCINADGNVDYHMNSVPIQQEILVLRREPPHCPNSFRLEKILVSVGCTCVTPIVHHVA

## LY2439821: humanized anti-IL-17 (IL-17A) monoclonal antibody
Human IL-17
  koff rate from human IL-17: less than 2×10^−5 s^−1
Human IL-17; read-out: binding affinity (KD) for human IL-17
  Kd: < 0.007 nM

## Human IL-17: recombinant human IL-17 (R&D Systems)
HT-29 cells; Human IL-17 0.10 ng/mL
  AVG GROα: 205.8 pg/mL
HT-29 cells; Human IL-17 12.00 ng/mL
  AVG GROα: 960.0 pg/mL
HT-29 cells; Human IL-17 60.00 ng/mL
  AVG GROα (pg/mL): 1,556.0 pg/mL
HT-29 cells; Human IL-17 300.00 ng/mL
  AVG GROα (pg/mL): 2,047.5 pg/mL
HT-29 cells; Human IL-17 1500.00 ng/mL
  AVG GROα (pg/mL): 2,420.4 pg/mL

## IMC-A12: fully human IgG1/λ monoclonal antibody binding insulin-like growth factor-I receptor (IGF-IR)
[1]
  percent loss and percent monomer as a function of pH: Percent loss was least and percent monomer was highest between pH 6.0-7.0
[2]; −20° C. and −70° C. up to 3 months, PBS and Citrate formulations
  percent monomer: The percent monomer did not change with time in either formulation
[2]; −20° C. and −70° C., three weeks
  percent monomer as a function of pH: The pH did not have significant effect on percent monomer
[3]
  rate of monomer change: smallest at lowest IMC-A12 concentration and at highest trehalose to IMC-A12 ratio
[4]
  secondary structure (circular dichorism): Secondary structure of IMC-A12 was not altered because of lyophilization
[5]; [6]
  particulate counts =10 μm/mL: 38.67 mL⁻¹
  particulate counts =25 μm/mL: 0.33 mL⁻¹
  particulate counts =50 μm/mL: 0.00 mL⁻¹
[5]; [7]
  particulate counts =10 μm/mL: 26.33 mL⁻¹
  particulate counts =25 μm/mL: 1.67 mL⁻¹
  particulate counts =50 μm/mL: 0.00 mL⁻¹
[5]; before and after lyophilization, 5 mg/mL
  particulate counts (HIAC): The particulate counts did not changed significantly

B1: LY2127399: human monoclonal antibody that specifically binds to TNFSF13b polypeptides (antibody, chains of the INN, looked up, V domains shown)
VH: QVQLQQWGAGLLKPSETLSLTCAVYGGSFSGYYWSWIRQPPGKGLEWIGEINHSGSTNYNPSLKSRVTISVDTSKNQFSLKLSSVTAADTAVYYCARGYYDILTGYYYYFDYWGQGTLVTVSS
VL: EIVLTQSPATLSLSPGERATLSCRASQSVSRYLAWYQQKPGQAPRLLIYDASNRATGIPARFSGSGSGTDSTLTISSLEPEDFAVYYCQQRSNWPRTFGQGTKVEIK
hTNFSF13b
  Kd: ≤ 10 nM
